Results published in the supplement of paper PMC10567573.

B1: WDR88 (parent)
chain: LLTITKAHSNAISNCCFTFSGHFL
B2: ADAMTSL2 (parent)
chain: KKPPEESTCFERPCFKWYTSPWSE

Variants of: B1
Assay: protein stability index of a GFP-peptide fusion (GPS, HEK-293T) (PSI 1-6); higher = more stable
Details: c terminus: a fixed tail appended
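Also: lentivirally expressed fusions sorted by FACS into six bins by GFP to DsRed ratio, PSI derived from sequencing read proportions per bin multiplied by bin number.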

Protein stability index: each site, then its substitutions
L24: W 1.58 | I 3.37 | Q 2.64 | M 2.98 | V 1.91 | R 2.28 | S 1.09 | N 3.3 | Y 3.97 | P 2.46 | K 2.93 | T 2.47

Variants of: B2
Assay: as above
Details: c terminus: a fixed tail appended

Protein stability index, by site and new letter:
S7: N 2.24 | H 2.51 | Y 2.64 | G 2.8 | A 2.31 | P 2.21 | C 2.66 | L 1.39 | R 2.19 | V 2.42 | E 2.47 | K 2.21 | W 1.66 | T 2.39 | M 2.08 | F 2.11 | I 2.28 | Q 2.58 | D 2.4
E6: I 1.87 | T 1.84 | L 2.07 | R 2.05 | S 1.82 | C 2.44 | V 2.65 | F 1.9 | G 2.57 | P 2.05 | W 1.87 | K 2.55 | M 1.9 | Y 1.97 | Q 2.06 | N 2.08 | A 1.91 | H 2.06 | D 2.8
C9: Q 3.34 | R 2.52 | P 2.7 | I 2.25 | H 2.36 | G 2.63 | F 2.3 | T 2.84 | E 3.33 | V 2.82 | L 2.05 | D 2.97 | S 2.35 | Y 2.54 | A 2.43 | W 2.04 | N 2.18 | M 2.8 | K 2.69
F15: I 2.79 | K 2.64 | L 1.61 | E 3.25 | A 2.75 | D 3.26 | Y 2.77 | Q 2.63 | C 2.93 | T 2.89 | N 2.63 | V 2.87 | H 2.6 | S 2.6 | G 2.25 | P 2.31 | R 2 | M 2.06 | W 2.25
P3: F 2 | W 2.6 | Q 2.67 | E 3.04 | I 1.93 | R 2.46 | C 2.08 | K 2.18 | Y 1.88 | S 2.29 | V 2.16 | A 2.83 | M 2.29 | T 2.21 | G 2.34 | D 2.77 | N 2.94 | H 1.84 | L 2.26
Y18: A 2.87
T8: Q 2.79 | I 2.32 | S 2.77 | D 2.61 | Y 1.68 | H 2.29 | R 2.14 | C 2.17 | N 2.56 | W 1.7 | F 1.74 | M 2.45 | E 2.69 | G 2.37 | V 2.28 | P 2.59 | K 2.89 | A 2.75 | L 3.01
P4: R 2.49 | C 1.95 | Q 2.72 | E 2.4 | G 3.23 | A 2.93 | H 1.94 | F 1.89 | I 2.26 | M 2.29 | T 3 | L 2.04 | S 2.21 | K 2.49 | W 1.75 | Y 2.48 | D 2.69 | V 2.77 | N 2.19
E11: Q 2.27 | M 1.98 | H 2.27 | K 2.11 | N 2.98 | F 2.19 | G 1.87 | R 1.75 | V 2.06 | Y 2.19 | S 2.82 | I 1.9 | C 1.49 | W 1.64 | L 1.88 | D 2.38 | T 2.05 | A 2.59 | P 2.46
K1: A 2.38 | D 2.67 | I 1.71 | M 2.48 | Q 2.58 | N 3.12 | E 3.08 | P 2.24 | Y 1.83 | G 2.34 | C 1.89 | T 2.52 | R 2.88 | V 2.29 | H 2.33 | W 1.75 | S 2.37 | F 2.59 | L 2.35
E5: F 1.88 | S 2.3 | N 2.29 | I 2.16 | H 2.09 | T 1.67 | V 2.48 | G 2.2 | Q 2 | R 2.02 | C 2.32 | W 2.27 | P 1.82 | L 2.33 | Y 2.01 | M 1.47 | D 2.08 | A 1.92 | K 1.45
R12: V 2.29 | D 3 | L 2.04 | Y 2.84 | C 1.69 | W 2.24 | F 1.71 | I 2.03 | N 2.55 | P 2.77 | T 2.09 | H 2.63 | S 2.79 | A 2.65 | G 2.42 | Q 2.3 | M 2.16 | E 2.95 | K 2.5
P13: G 2.27 | I 2.02 | A 2.23 | H 2.21 | Q 2.1 | F 2.18 | T 2.16 | R 1.79 | N 2.32 | D 2.39 | C 1.84 | S 2.31 | E 2.49 | M 2.02 | K 2.58 | Y 1.87 | L 2.09 | V 1.96
F10: M 2.83 | T 3.19 | V 2.86 | K 3.55 | C 2.14 | L 2.81 | P 3.19 | N 2.45 | Y 2.06 | E 2.9 | A 2.51 | G 2.71 | W 2.09 | H 2.99 | S 3.46 | Q 2.54 | D 2.89 | I 2.81
W17: V 2.52 | T 2.9 | A 3.79 | C 2.56 | F 2.88 | K 3.53 | Q 2.85 | H 2.57 | L 2.37 | D 3.6 | N 3.42 | S 3.33 | Y 2.86 | P 3.5 | M 2.9 | R 2.96 | E 3.19 | I 2.46 | G 3.35
C14: H 2.23 | Q 2.68 | R 3.7 | S 2.23 | Y 2.02 | P 3.09 | W 1.9 | M 2.62 | I 2.23 | E 2.89 | G 3.12 | V 2.58 | L 2.25 | T 2.42 | K 2.69 | A 2.94 | D 3.26 | F 2.39 | N 2.98
K2: F 2.13 | C 2.75 | G 2.73 | Y 2.36 | M 2.72 | I 1.78 | E 2.79 | S 2.15 | V 2.04 | A 3.16 | P 2.27 | N 2.94 | Q 2.29 | H 1.96 | W 2.39 | D 3.01 | L 2.73 | T 2.66 | R 2.61
K16: T 2.22 | F 1.9 | L 2.51 | E 3.35 | M 2.43 | R 2.27 | P 2.13 | C 2.07 | V 1.94 | N 2.63 | G 1.67 | H 4.02 | Q 2.8 | S 2.49 | A 2.62 | Y 1.72 | I 1.77 | W 1.86 | D 3.04
